B1: miniXS3B: miniX^on cassette with optimized Kozak/ATG and cryptic splicing sites eliminated; SEQ ID NO: 1 (nucleic acid)
DNA: TTTAAACAAGCTTGGCAATCCGGTACTGTTGGTAAATTTCTCTACAACTTAACCTTACAGAGAGCCACTGGCTTCAGCTTTGCCTTTCTTGGTAACTTTTCTGGTAAGTTCTCTCGTTACCATCTTTTGAAATTTTAAGTGAATTAATACATATCTTGCTTAATCTCTTGTGCAAAAAATGTTTTCCATTTATGACAAAACAAAAATTGTGTGAAATTTCAAATATTGGATTAGGAAATACAAAGTTACTGAAAGTGAGGTACTAATGTTTATAAAATAAAAACTTTTTCTTGCCATTTGCAGATTAACATTTTTGAGTCAATCCAAGTGCCACCATGGAAAAAGTTCATGATTGTGTAGAGTAAGACATAATTTTGTTGAAATTTAACTCTGAATACTTAATGTGGTACTGAATACTTAATGTGGTACTGAGAAGCAGCCTAACTGACCACACAACATTCCACGCCTGGCTAATTTTTGTATTTTTAATAAAAACGGGGTTTCACCATGGTGGCCGGGCTGGTTCTGGTTGTTTATGATCTTTATTTTTTGGTGATCTAGGAACCAAACAACAAAAAATTGTTGTTTCCCGTGGGTCGGATCC
modifications: SF3B3.miniXS3B (m3B; miniXS3B; XS3B)
B2: miniXS3B2: miniX^on cassette with optimized Kozak/ATG and cryptic splicing sites eliminated; SEQ ID NO: 2 (nucleic acid)
DNA: GTTTAAACAAGCTTGGCAATCCGGTACTGTTGGTAAATTTCTCTACAACTTAACCTTACAGAGAGCCACTGGCTTCAGCTTTGCCTTTCTTGGTAACTTTTCTGGTAAGTTCTCTCGTTACCATCTTTTGAAATTTTAAATGAATTAATACATATCTTGCTTAATCTCTTGTGCAAAAAATGTTTTCCATTTATGACAAAACAAAAATTGTGTGAAATTTCAAATATTGGATTAAAAAATACAAAGTTACGGAAAATGAGGTACTAATGTTTATAAAATAAAAACTTTTTCTTGCCATTTGCAGATTAACATTTTTGAGTCAATCCAAGTGCCACCATGGAAAAAGTTCATGATTGTGTAGAGTAAGACATAATTTTGTTGAAATTTAACTCTGAATACTTAATGTGGTACTGAATACTTAATGTGGTACTGAGAAGCAGCCTAACTGACCACACAACATTCCACGCCTGGCTAATTTTTGTATTTTTAATAAAAACGGGGTTTCACCATGGTGGCCGGGCTGGTTCTGGTTGTTTATGATCTTTATTTTTTGGTGATCTAGGAACCAAACAACAAAAAATTGTTGTTTCCCGTGGGTCGGATCC
modifications: SF3B3.miniXS3B2 (m3B2; miniXS3B2; XS3B2)

Experiments:
[1] = test system: loxP-STOP cassette; assay: In vivo gene editing in liver of Ai14 mice (FACS, histology, genomic DNA PCR, Sanger sequencing); settings: LMI070 50 mg kg-1, 7 days after LMI070
From the text: FIGS. 1A-1H. Generation of the miniXon cassette and assessment of miniXon control of SaCas9 for in vivo gene editing in liver. a, Cartoon depicting the AAV genome size with the SF3B3-Xon and SF3B3-miniXon cassettes. b, Luciferase induction in HEK293 cells transfected with SF3B3-miniXon-luciferase or SF3B3-Xon-luciferase in response to varying doses of LMI070. All samples are normalized to Renilla luciferase activity and are relative to DMSO treated cells. Data are the mean±s.e.m. of 8 biological replicates (***P<0.001 versus SF3B3.Xon, two-way ANOVA followed by Bonferroni's post hoc test). c, Splicing inclusion assays of the LMI070-induced exon at 100 nM LMI070. Pseudo exon inclusion in the Xon cassette was detected using primers flanking the pseudoexon (left) or by priming within the novel exon sequence (right; 4 technical replicates). d, Experimental design. […]
The inventors have previously developed switch-on cassettes from LMI070-responsive exons, including from the minimal intronic intervening sequences necessary to recapitulate splicing of pseudoexons in SF3B3 (SF3B3.X^on; X^on). […] AAV8-miniX^on-SaCas9 plus single-guide RNAs targeting the loxP-STOP sequence in Ai14 mice were administered intravenously; after several weeks, LMI070 was administered and gene editing was assessed 7 days later (FIG. 1D). […]

[2] = test system: SaCas9; assay: SaCas9 protein levels by western blot in HEK293 cells treated with DMSO or LMI070; format: cell-based, human; settings: for SaCas9 protein level, DMSO treated cells / SaCas9 protein induction after LMI070 treatment: 24 h; for SaCas9 protein levels relative to SF3B3.miniXon cassette / SaCas9 protein induction after LMI070 treatment: LMI070 (100 nM)
Protocol: FIG. 3. Comparison of the miniX^on (miX^on), SF3B3.miniXS3B (m3B), and SF3B3.miniXS3B2 (m3B2) systems for HD editing control. (top) Cartoon depicting X^on splicing system for controlling Cas9 protein translation in response to LMI070. (middle, bottom) Bicistronic plasmids containing Xon.SaCas9 or miniXon.SaCas9 expression cassette together with a CMVeGFP expression cassettes were transfected in HEK293 cells and treated with DMSO (middle) or LMI070 (100 nM) (bottom) and Cas9 protein levels were determined by western blot 24 h later. eGFP proteins served as transfection control. Western blot is representative of 4 biological replicates.
While gene editing approaches provide an enormous opportunity for altering or removing disease alleles, prolonged expression of the editing machinery from viral vectors could be problematic. The editing enzymes are foreign proteins and may induce immune responses, and prolonged gene expression would increase opportunities for off-target editing (Charlesworth et al., 2019; Vakulskas et al., 2018). To test the efficacy of SF3B3.miXS3B and SF3B3.miXS3B2 to control translation of CRISPR effector proteins, SF3B3.miXS3B and SF3B3.miXS3B2-SaCas9-CRISPR expression cassettes were generated and SaCas9 protein levels were quantified in response to DMSO or LMI070 treatment in HEK293 cells (FIG. 3A).

[3] = test system: luciferase; assay: Luciferase induction in HEK293 cells transfected with switch cassette-luciferase and treated with LMI070; format: cell-based, human; settings: varying doses of LMI070, 24 h
From the text: FIGS. 1A-1H. Generation of the miniXon cassette and assessment of miniXon control of SaCas9 for in vivo gene editing in liver. a, Cartoon depicting the AAV genome size with the SF3B3-Xon and SF3B3-miniXon cassettes. b, Luciferase induction in HEK293 cells transfected with SF3B3-miniXon-luciferase or SF3B3-Xon-luciferase in response to varying doses of LMI070. All samples are normalized to Renilla luciferase activity and are relative to DMSO treated cells. Data are the mean±s.e.m. of 8 biological replicates (***P<0.001 versus SF3B3.Xon, two-way ANOVA followed by Bonferroni's post hoc test). c, Splicing inclusion assays of the LMI070-induced exon at 100 nM LMI070. Pseudo exon inclusion in the Xon cassette was detected using primers flanking the pseudoexon (left) or by priming within the novel exon sequence (right; 4 technical replicates). d, Experimental design. Mice were injected with AAV8-miniXon-SaCas9 plus AAV8-sgAi14-eGFP (1×10^12 viral genomes, 1:1 ratio) and 2 weeks later dosed with vehicle or LMI070 at 50 mg kg-1 to induce SaCas9 expression and editing of the loxP-STOP cassette (guides: sgA14_1: 5′-[…]-3′, sgAi14_2: 5′-[…]-3′). One week later, mice were euthanized, and livers processed to assess gene editing by genomic DNA PCR, histology and FACS of isolated hepatocytes. e, Representative FACS analysis of hepatocytes obtained from Ai14 mice after LMI070 or vehicle treatment. The gating/sorting strategy (above), and the percentage of tdTomato expressing cells for each condition (below) is shown (4 biological replicates). f, Representative photomicrographs of liver sections obtained from AAV injected Ai14 mice 1-week after LMI070 treatment. tdTomato expression (red) is evident in LMI070 treated mice (5 mice per group; scale bars, 100 μm). g, SaCas9 mediated editing of the loxP-STOP cassette in Ai14 mice as detected by PCR assay of liver genomic DNA (3 of 5 mice with guides plus LMI, 2 of 4 mice with guides plus vehicle, 1 of 2 untreated mice are shown). […] The sequence shown is represented in SEQ ID NO: 29.
FIG. 2. Comparison of the miniX^on, SF3B3.miniXS3B (miniXS3B), and SF3B3.miniXS3B2 (miniXS3B2) systems for luciferase induction. To increase expression and induction of the miniXon cassette in response to LMI070, the kozak sequence within the LMI070 induced translation initiation exon was optimized, and splice sites located within the upstream and downstream intron eliminated. […]
To test these switches, the cassettes were cloned upstream of luciferase or cDNA. HEK293 cells were transfected with the candidate cassettes, treated with LMI070, and luciferase activity expression determined 24 h later.

Molecule	Editing of the loxP-STOP cassette (genomic DNA PCR, 355 bp product, Sanger sequencing) ([1]; Ai14 mice liver)	tdTomato expression in hepatocytes / liver sections ([1]; Ai14 mice, AAV8-miniXon-SaCas9 plus AAV8-sgAi14-eGFP i.v.)	SaCas9 protein level, DMSO treated cells [2]	SaCas9 protein levels relative to SF3B3.miniXon cassette [2]	SaCas9 protein induction after LMI070 treatment [2]	Luciferase induction relative to X^on and miniX^on [3]	Protein levels (luciferase) relative to SF3B3.miniX^on cassette [3]
CC1(C)CC(Oc2ccc(-c3ccc(-c4cn[nH]c4)cc3O)nn2)CC(C)(C)N1 [LMI070, 5-(1H-Pyrazol-4-yl)-2-(6-((2,2,6,6-tetramethylpiperidin-4-yl)oxy)pyridazin-3-yl) phenol]	observed	evident	–	–	–	–	–
B1	–	–	almost undetectable	higher	evident	improved induction relative to X^on and miniX^on	higher protein levels relative to the previous SF3B3.miniX^on cassette
B2	–	–	almost undetectable	higher	evident	improved induction relative to X^on and miniX^on	higher protein levels relative to the previous SF3B3.miniX^on cassette

From patent US20250303000A1, “COMPOSITIONS AND METHODS FOR INDUCIBLE ALTERNATIVE SPLICING REGULATION OF GENE EXPRESSION” (THE CHILDREN'S HOSPITAL OF PHILADELPHIA, priority 2022, published 2025)
